Tests used:
[1] = target: RSV A2 prefusion-stabilized F glycoprotein variant DS-Cav1 (respiratory syncytial virus strain A2); test: cryo-EM structure
[2] = target: RSV B18537 prefusion-stabilized F glycoprotein variant sc9-10 DS-Cav1 (respiratory syncytial virus strain B18537); test: cryo-EM structure
[3] = target: h5B11-YTE, h5B11 with the YTE mutation (M252Y/S254T/T256E) in the Fc region (human); test: SPR
[4] = target: T1, RSV B18537 prefusion-stabilized F glycoprotein variant DS-Cav1 (Human respiratory syncytial virus B, …, stabilised); test: SPR
T1 chain 1: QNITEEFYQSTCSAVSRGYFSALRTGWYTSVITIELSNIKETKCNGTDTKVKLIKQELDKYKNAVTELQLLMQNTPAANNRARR
T1 chain 2: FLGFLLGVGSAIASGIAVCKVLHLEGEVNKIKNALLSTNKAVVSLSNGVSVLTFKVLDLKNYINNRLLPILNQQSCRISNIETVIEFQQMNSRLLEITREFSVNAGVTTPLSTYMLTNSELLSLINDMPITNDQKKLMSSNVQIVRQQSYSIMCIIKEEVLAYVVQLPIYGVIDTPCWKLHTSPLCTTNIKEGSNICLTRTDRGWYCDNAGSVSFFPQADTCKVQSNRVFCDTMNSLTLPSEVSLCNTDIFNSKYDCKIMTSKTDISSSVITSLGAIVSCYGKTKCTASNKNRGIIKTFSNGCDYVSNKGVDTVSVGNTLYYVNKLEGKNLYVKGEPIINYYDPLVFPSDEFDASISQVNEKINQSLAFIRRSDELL

[5] = target: RSV B18537 post-fusion F protein (Human respiratory syncytial virus B, …, UniProt P13843); test: ELISA
Sequence of RSV B18537 post-fusion F protein (P13843 whole entry, looked up, the tested form may be a part, one chain of several): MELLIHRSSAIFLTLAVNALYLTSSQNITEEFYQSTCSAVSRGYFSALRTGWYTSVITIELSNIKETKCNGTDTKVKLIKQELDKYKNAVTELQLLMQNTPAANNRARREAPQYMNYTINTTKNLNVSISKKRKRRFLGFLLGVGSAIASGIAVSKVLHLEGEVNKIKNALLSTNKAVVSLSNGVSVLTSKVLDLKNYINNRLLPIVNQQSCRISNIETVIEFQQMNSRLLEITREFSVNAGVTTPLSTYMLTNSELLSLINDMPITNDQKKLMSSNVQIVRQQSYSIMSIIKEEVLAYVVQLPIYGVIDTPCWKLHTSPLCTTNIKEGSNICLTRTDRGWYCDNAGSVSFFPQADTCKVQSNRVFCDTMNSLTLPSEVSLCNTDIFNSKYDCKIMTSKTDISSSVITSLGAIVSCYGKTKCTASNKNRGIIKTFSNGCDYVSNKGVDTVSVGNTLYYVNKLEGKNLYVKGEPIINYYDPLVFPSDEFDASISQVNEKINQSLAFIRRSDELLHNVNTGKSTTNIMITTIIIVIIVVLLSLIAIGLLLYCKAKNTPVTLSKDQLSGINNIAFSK

[6] = target: RSV A2 post-fusion F protein (Human respiratory syncytial virus A, …, UniProt P03420); test: ELISA
Sequence of RSV A2 post-fusion F protein (P03420 whole entry, looked up, the tested form may be a part): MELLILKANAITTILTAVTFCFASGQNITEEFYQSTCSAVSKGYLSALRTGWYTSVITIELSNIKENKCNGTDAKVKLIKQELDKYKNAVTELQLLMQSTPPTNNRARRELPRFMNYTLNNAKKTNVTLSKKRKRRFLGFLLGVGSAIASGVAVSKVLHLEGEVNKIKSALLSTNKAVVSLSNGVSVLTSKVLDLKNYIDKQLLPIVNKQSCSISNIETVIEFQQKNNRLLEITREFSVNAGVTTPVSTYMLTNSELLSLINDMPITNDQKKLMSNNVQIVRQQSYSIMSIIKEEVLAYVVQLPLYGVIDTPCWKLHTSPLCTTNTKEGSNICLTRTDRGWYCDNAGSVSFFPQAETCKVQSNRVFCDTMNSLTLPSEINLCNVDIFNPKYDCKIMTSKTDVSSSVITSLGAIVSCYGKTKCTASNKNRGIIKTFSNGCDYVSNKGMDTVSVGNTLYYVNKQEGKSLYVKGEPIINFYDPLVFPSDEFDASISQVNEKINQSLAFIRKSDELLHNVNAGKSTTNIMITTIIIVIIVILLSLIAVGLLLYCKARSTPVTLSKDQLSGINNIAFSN

[7] = target: RSV B18537 prefusion-stabilized F glycoprotein variant DS-Cav1 (respiratory syncytial virus strain B18537)
[8] = target: RSV B18537 prefusion-stabilized F glycoprotein variant DS-Cav1 (respiratory syncytial virus strain B18537); test: SPR

RSV A2 prefusion-stabilized F glycoprotein variant DS-Cav1 (natural protein)
stoichiometry N [1]: 3

RSV B18537 prefusion-stabilized F glycoprotein variant sc9-10 DS-Cav1 (natural protein)
stoichiometry N [2]: 3

human neonatal FcR (hFcRn) (from UniProt P55899;P61769) (receptor)
fold increase in affinity over h5B11-WT [3]: 8 fold

B1: 5B11 Fab (antigen-binding fragment of murine 5B11) (Fab, V domains shown)
VH: QIQLVQSGPELKKPGETVKISCKASGYTFTDYSMHWLKQAPGKGLKWMGWITTETGEPTYADDFKGRFAFSLETSASTAYLQINNLKNEDTGIYFCARYYYGPFYWGQGTLVTVST
VL: DIQMTQSPASLSASVGETVTITCRSSGNIHNFLTWYQQKQGKSPQFLVYNAKTLADGVSSRFSGSGSGTQFSLKINSLQPEDFGIYYCQHFWTTPYTFGGGTKLEIK
Kd [4]: 0.124 nM

B2: h5B11, humanized version of 5B11 (human IgG1, kappa) (antibody, V domains shown)
VH: QIQLVQSGPELKKPGASVKISCKASGYTFTDYSMHWLKQAPGKGLKWMGWITTETGEPTYADDFKGRFAFSLDTSASTAYLQISSLKAEDTGVYFCARYYYGPFYWGQGTLVTVSS
VL: DIQMTQSPSSLSASVGDRVTITCRSSGNIHNFLTWYQQKPGKSPQFLVYNAKTLADGVPSRFSGSGSGTQFTLTISSLQPEDFGIYYCQHFWTTPYTFGGGTKVEIK
binding result [5]: no binding
binding result [6]: no binding

B3: 5B11, murine monoclonal antibody (mouse IgG2a, kappa) (antibody, V domains shown)
VH: QIQLVQSGPELKKPGETVKISCKASGYTFTDYSMHWLKQAPGKGLKWMGWITTETGEPTYADDFKGRFAFSLETSASTAYLQINNLKNEDTGIYFCARYYYGPFYWGQGTLVTVST
VL: DIQMTQSPASLSASVGETVTITCRSSGNIHNFLTWYQQKQGKSPQFLVYNAKTLADGVSSRFSGSGSGTQFSLKINSLQPEDFGIYYCQHFWTTPYTFGGGTKLEIK
binding result [5]: no binding
binding result [6]: no binding

B4: nirsevimab (biosimilar, human IgG1, kappa) (antibody, V domains shown)
VH: QVQLVQSGAEVKKPGSSVMVSCQASGGLLEDYIINWVRQAPGQGPEWMGGIIPVLGTVHYGPKFQGRVTITADESTDTAYMELSSLRSEDTAMYYCATETALVVSETYLPHYFDNWGQGTLVTVSS
VL: DIQMTQSPSSLSAAVGDRVTITCQASQDIVNYLNWYQQKPGKAPKLLIYVASNLETGVPSRFSGSGSGTDFSLTISSLQPEDVATYYCQQYDNLPLTFGGGTKVEIK
plaque reduction neutralization of RSV B18537, IC50 [7]: 0.0285 µg/mL

B5: nirsevimab Fab (Fab, V domains shown)
VH: QVQLVQSGAEVKKPGSSVMVSCQASGGLLEDYIINWVRQAPGQGPEWMGGIIPVLGTVHYGPKFQGRVTITADESTDTAYMELSSLRSEDTAMYYCATETALVVSETYLPHYFDNWGQGTLVTVSS
VL: DIQMTQSPSSLSAAVGDRVTITCQASQDIVNYLNWYQQKPGKAPKLLIYVASNLETGVPSRFSGSGSGTDFSLTISSLQPEDVATYYCQQYDNLPLTFGGGTKVEIK
Kd [8]: > 800 nM

From PMC11582626 (Nature Communications, 2024)
